Experimental data as given in US20220073608A1 (JIANGSU HUAIYU PHARMACEUTICAL, published 2022).
Positions count from the first letter of the chain named.

T1: biotinylated hSEMA4D ECD-His (human, UniProt Q92854 22-734, biotinylated with Biotin-X-X-NHS at a molar ratio of 8:1; sites not stated)
T1 construct: also called biotinylated immunogen; not shown: His tag of the pCP vector
T1 sequence: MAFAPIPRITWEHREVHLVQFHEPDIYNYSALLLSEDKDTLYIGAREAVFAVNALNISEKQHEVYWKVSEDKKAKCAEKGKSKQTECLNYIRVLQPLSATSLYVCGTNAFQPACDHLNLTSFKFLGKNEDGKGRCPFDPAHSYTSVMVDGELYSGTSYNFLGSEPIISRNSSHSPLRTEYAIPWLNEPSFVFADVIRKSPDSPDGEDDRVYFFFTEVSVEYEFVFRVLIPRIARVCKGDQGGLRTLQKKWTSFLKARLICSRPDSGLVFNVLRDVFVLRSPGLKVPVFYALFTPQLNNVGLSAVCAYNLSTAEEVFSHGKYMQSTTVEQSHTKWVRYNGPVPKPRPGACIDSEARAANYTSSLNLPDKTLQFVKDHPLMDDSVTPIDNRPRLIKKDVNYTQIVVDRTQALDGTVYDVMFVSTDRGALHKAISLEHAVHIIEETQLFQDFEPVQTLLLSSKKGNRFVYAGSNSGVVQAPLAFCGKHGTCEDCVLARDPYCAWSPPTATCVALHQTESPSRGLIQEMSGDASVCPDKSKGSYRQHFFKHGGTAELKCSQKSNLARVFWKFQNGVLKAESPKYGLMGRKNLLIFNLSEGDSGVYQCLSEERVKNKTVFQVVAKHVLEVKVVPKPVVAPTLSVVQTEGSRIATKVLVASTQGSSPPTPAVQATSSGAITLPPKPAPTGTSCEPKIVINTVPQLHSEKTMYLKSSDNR

B1: 32C8F10 (antibody, V domains shown)
VH: EVQLQQSGAELVRPGASVKLSCTASGFNIKDEYIHWVKQRPEQGLEWIGWIDPANGHTEYASRFQAKATITADTSSNTAYLQLSSLTSEDTAVYYCTTGDYDGFAYWGQGTLVTVST
VL: QIVLTQSPAIMSASPGEKVTISCSARSSVSYMYWYQQKPGSSPKPWIYRTSNLASGVPARFSGSGSGTSYSLTISSMEAEDAATYYCQHYHTYPYTFGGGTKLEIK
notes: Mouse monoclonal antibody purified from hybridoma supernatant on protein A
B2: 31C11G2 (antibody, V domains shown)
VH: B1 VH with A105V
VL: B1 VL with S22F
notes: as for B1
B3: 31G10C5 (antibody, V domains shown)
VH: B1 VH with E32D, T58I, R63N, A105T
VL: B1 VL
notes: as for B1

molecular target: T1, biotinylated hSEMA4D ECD-His; assay: FACS, blocking of biotinylated hSEMA4D ECD-His binding to 293F hPlexin B1 cells; Ab 0.0213 nM
Procedure: (§1) The medium was aspirated, the cells were washed once with PBS buffer (purchased from Invitrogen), and then treated with cell dissociation fluid (TrypLE™ Express Enzyme, purchased from Life technology), and the cells were collected. After the cells counted, the cells were washed once with PBS phosphate buffer, and diluted to 1×10⁶ cells per milliliter, and added to the 96-well FACS reaction plate as 100 μL per well. 2% (w/w) fetal calf serum was added to PBS phosphate buffer as FACS buffer, with which the cells were washed once by centrifugation at 2000 rpm 4° C. Meanwhile, the purified leading antibody and biotinylated hSEMA4D ECD-His were mixed and incubated on ice for 30 minutes. Then 100 μL of the mixture was added to each well and the plate was incubated on ice for 1 hour. […] Cells were washed 2 times by centrifugation with FACS buffer. The cells were suspended with 200 μL of FACS buffer, and FACS (FACS Verse, purchased from BD) was used to detect and analyze the results. The results are shown in FIGS. 11A-11B and Tables 20-21.

MFI (residual ligand binding)	Binder
463	B1
547	B2
466	B3

molecular target: T1, biotinylated hSEMA4D ECD-His; assay: FACS, blocking of biotinylated hSEMA4D ECD-His binding to 293F hPlexin B1 cells; Ab 0.107 nM
Procedure: as §1

MFI (residual ligand binding)	Binder
454	B1
530	B2
460	B3

molecular target: T1, biotinylated hSEMA4D ECD-His; assay: FACS, blocking of biotinylated hSEMA4D ECD-His binding to 293F hPlexin B1 cells; Ab 0.00427 nM
Procedure: as §1

MFI (residual ligand binding)	Binder
471	B1
544	B2
470	B3

molecular target: T1, biotinylated hSEMA4D ECD-His; assay: FACS, blocking of biotinylated hSEMA4D ECD-His binding to 293F hPlexin B1 cells; Ab 13.3 nM
Procedure: as §1

MFI (residual ligand binding)	Binder
204	B1
266	B2
209	B3

molecular target: T1, biotinylated hSEMA4D ECD-His; assay: FACS, blocking of biotinylated hSEMA4D ECD-His binding to 293F hPlexin B1 cells; Ab 333 nM
Procedure: as §1

MFI (residual ligand binding)	Binder
85.1	B1
50.8	B2
45.4	B3

molecular target: T1, biotinylated hSEMA4D ECD-His; assay: FACS, blocking of biotinylated hSEMA4D ECD-His binding to 293F hPlexin B1 cells; Ab 0.534 nM
Procedure: as §1

MFI (residual ligand binding)	Binder
420	B1
513	B2
427	B3

molecular target: T1, biotinylated hSEMA4D ECD-His; assay: FACS, blocking of biotinylated hSEMA4D ECD-His binding to 293F hPlexin B1 cells; Ab 2.67 nM
Procedure: as §1

MFI (residual ligand binding)	Binder
333	B1
415	B2
334	B3

molecular target: T1, biotinylated hSEMA4D ECD-His; assay: FACS, blocking of biotinylated hSEMA4D ECD-His binding to 293F hPlexin B1 cells; Ab 66.7 nM
Procedure: as §1

MFI (residual ligand binding)	Binder
55.5	B1
54.2	B2
54.2	B3
